Measured values from patent publication US20240209086A1 (PETMEDIX, published 2024).
Where a chain is given by its changes, count along the chain named.

B1: PMX189 in bispecific format (canine CD3 arm PMX189 x Rituximab arm, human IgG4PE knob-in-hole) (bispecific antibody)
heavy 1: ELTLQESGPGLVKPSQTLSLTCVVSGGSVTNNYYWNWIRQRPGRGLEWMGYWTGSTKYNPAFQGRISITADTANNQFSLHLNSMSSEDTAVYYCARDRDRRVPHAYGYWGQGTLVTVSSASTKGPSVFPLAPCSRSTSESTAALGCLVKDYFPEPVTVSWNSGALTSGVHTFPAVLQSSGLYSLSSVVTVPSSSLGTKTYTCNVDHKPSNTKVDKRVESKYGPPCPPCPAPEFEGGPSVFLFPPKPKDTLMISRTPEVTCVVVDVSQEDPEVQFNWYVDGVEVHNAKTKPREEQFNSTYRVVSVLTVLHQDWLNGKEYKCKVSNKGLPSSIEKTISKAKGQPREPQVYTLPPSQCEMTKNQVSLSCAVKGFYPSDIAVEWESNGQPENNYKTTPPVLDSDGSFFLVSRLTVDKSRWQEGNVFSCSVMHEALHNRFTQKSLSLSLGK
light 1: SYVLTQLPSKNVTLKQPAHITCGGDNIGSKSVHWYQQKLGQAPVLIIYYDSSRPTGIPERFSGANSGNTATLTISGALAEDEADYYCQVWDSSAKASVFGGGTHLTVLRTVAAPSVFIFPPSDEQLKSGTASVVCLLNNFYPREAKVQWKVDNALQSGNSQESVTEQDSKDSTYSLSSTLTLSKADYEKHKVYACEVTHQGLSSPVTKSFNRGEC
heavy 2: not shown
light 2: QIVLSQSPAILSASPGEKVTMTCRASSSVSYIHWFQQKPGSSPKPWIYATSNLASGVPVRFSGSGSGTSYSLTISRVEAEDAATYYCQQWTSNPPTFGGGTKLEIKRTVAAPSVFIFPPSDEQLKSGTASVVCLLNNFYPREAKVQWKVDNALQSGNSQESVTEQDSKDSTYSLSSTLTLSKADYEKHKVYACEVTHQGLSSPVTKSFNRGEC
B2: PMX191 in bispecific format (canine CD3 arm PMX191 x Rituximab arm, human IgG4PE knob-in-hole) (bispecific antibody)
heavy 1: EVQLVESGGDLVKPAGSLRLSCVASGFTFSDYSMSWVRQGPEKGLQLVAGMNSDGSTTYYTDAVRGRFTISRDNAKNTMYLQMNSLRDEDTAIYYCAKGAAAPDYWGQGTLVTVSSASTKGPSVFPLAPCSRSTSESTAALGCLVKDYFPEPVTVSWNSGALTSGVHTFPAVLQSSGLYSLSSVVTVPSSSLGTKTYTCNVDHKPSNTKVDKRVESKYGPPCPPCPAPEFEGGPSVFLFPPKPKDTLMISRTPEVTCVVVDVSQEDPEVQFNWYVDGVEVHNAKTKPREEQFNSTYRVVSVLTVLHQDWLNGKEYKCKVSNKGLPSSIEKTISKAKGQPREPQVYTLPPSQCEMTKNQVSLSCAVKGFYPSDIAVEWESNGQPENNYKTTPPVLDSDGSFFLVSRLTVDKSRWQEGNVFSCSVMHEALHNRFTQKSLSLSLGK
light 1: SYELTQPPSVNVTLRETAHITCGGDRIGSKYVQWIQQIPGQAPVVIIYKDNNRPTGIPERFSGANSGNTATLTISGALAEDEADYYCQVGDNYTWVFGEGTQLTVLRTVAAPSVFIFPPSDEQLKSGTASVVCLLNNFYPREAKVQWKVDNALQSGNSQESVTEQDSKDSTYSLSSTLTLSKADYEKHKVYACEVTHQGLSSPVTKSFNRGEC
heavy 2: not shown
light 2: B1 light 2
B3: PMX192 in bispecific format (canine CD3 arm PMX192 x Rituximab arm, human IgG4PE knob-in-hole) (bispecific antibody)
heavy 1: EVQLVESGGDLVKPAGSLRLSCVASGFTFSDYSMSWVRQAPEKGLQLVAGINGDGSTTYYTDAVKGRFTISRDNAKNTVYLQMNSLRAEDTAMYYCAKGAGTGDFWGQGTLVTVSSASTKGPSVFPLAPCSRSTSESTAALGCLVKDYFPEPVTVSWNSGALTSGVHTFPAVLQSSGLYSLSSVVTVPSSSLGTKTYTCNVDHKPSNTKVDKRVESKYGPPCPPCPAPEFEGGPSVFLFPPKPKDTLMISRTPEVTCVVVDVSQEDPEVQFNWYVDGVEVHNAKTKPREEQFNSTYRVVSVLTVLHQDWLNGKEYKCKVSNKGLPSSIEKTISKAKGQPREPQVYTLPPSQCEMTKNQVSLSCAVKGFYPSDIAVEWESNGQPENNYKTTPPVLDSDGSFFLVSRLTVDKSRWQEGNVFSCSVMHEALHNRFTQKSLSLSLGK
light 1: B2 light 1 with D25A, R26S, S29R, N51S, N92S, Y93G, T94A
heavy 2: not shown
light 2: B1 light 2
B4: PMX184 in bispecific format (canine CD3 arm PMX184 x Rituximab arm, human IgG4PE knob-in-hole) (bispecific antibody)
heavy 1: ELTLQESGPGLVKPSQTLSLTCGVSGGSVTRSHYWNWVRQRPGRGLEWMGYWTGSTNYNPAFQGRISITADTAKNQFSLQLRSMTTEDTAVYFCARETTIPTFFFDYWGQGTLVTVSSASTKGPSVFPLAPCSRSTSESTAALGCLVKDYFPEPVTVSWNSGALTSGVHTFPAVLQSSGLYSLSSVVTVPSSSLGTKTYTCNVDHKPSNTKVDKRVESKYGPPCPPCPAPEFEGGPSVFLFPPKPKDTLMISRTPEVTCVVVDVSQEDPEVQFNWYVDGVEVHNAKTKPREEQFNSTYRVVSVLTVLHQDWLNGKEYKCKVSNKGLPSSIEKTISKAKGQPREPQVYTLPPSQCEMTKNQVSLSCAVKGFYPSDIAVEWESNGQPENNYKTTPPVLDSDGSFFLVSRLTVDKSRWQEGNVFSCSVMHEALHNRFTQKSLSLSLGK
light 1: B1 light 1 with S93G, S97W, G101E, H104Q
heavy 2: not shown
light 2: B1 light 2
B5: PMX185 in bispecific format (canine CD3 arm PMX185 x Rituximab arm, human IgG4PE knob-in-hole) (bispecific antibody)
heavy 1: EVQLVESGGDLVKPGGSLRLSCVASGFTFSSYHMSWVRQAPGKGLQWVASINSGGSRTSYVDAVKGRFTISRDNAKKTLYLQMNSLRAEDTAVYYCASGRTGPKLGLGDYGMDSWGHGTSLFVSSASTKGPSVFPLAPCSRSTSESTAALGCLVKDYFPEPVTVSWNSGALTSGVHTFPAVLQSSGLYSLSSVVTVPSSSLGTKTYTCNVDHKPSNTKVDKRVESKYGPPCPPCPAPEFEGGPSVFLFPPKPKDTLMISRTPEVTCVVVDVSQEDPEVQFNWYVDGVEVHNAKTKPREEQFNSTYRVVSVLTVLHQDWLNGKEYKCKVSNKGLPSSIEKTISKAKGQPREPQVYTLPPSQCEMTKNQVSLSCAVKGFYPSDIAVEWESNGQPENNYKTTPPVLDSDGSFFLVSRLTVDKSRWQEGNVFSCSVMHEALHNRFTQKSLSLSLGK
light 1: B1 light 1 with L45M, S97W, G101E, H104Q
heavy 2: not shown
light 2: B1 light 2
B6: PMX187 in bispecific format (canine CD3 arm PMX187 x Rituximab arm, human IgG4PE knob-in-hole) (bispecific antibody)
heavy 1: B5 heavy 1 with K77N
light 1: B1 light 1 with S97W, G101A, H104Q
heavy 2: not shown
light 2: B1 light 2
B7: PMX188 in bispecific format (canine CD3 arm PMX188 x Rituximab arm, human IgG4PE knob-in-hole) (bispecific antibody)
heavy 1: B5 heavy 1
light 1: B1 light 1 with V44I, S97W, G101E, H104Q
heavy 2: not shown
light 2: B1 light 2

Legend:
[1] = target: T1, canine CD3εδ-Fc (heterodimer of canine CD3ε-hIgG4PE-knob and canine CD3δ-hIgG4PE-hole) (canine); assay: SPR (Biacore 8K), CD3εδ-Fc amine-coupled to CM5 chip, multi-cycle kinetics, antibody 600-7.4 nM
T1 construct: also called CD3εδ-Fc fusion protein; copies: 1 + 1
Method: Binding affinity of shortlisted candidates, described in Example 3, were assessed using Biacore 8K (Cytiva). Briefly, a CM5 Sensor Chip (Cytiva) was docked onto a Biacore 8K, equilibrated for 30′ at RT and then Running Buffer (10 mM HEPES pH6 150 mM NaCl 3 mM EDTA and 0.005% Tween20) was applied to the SPR chip surface. Canine CD3εδ-Fc was diluted into 10 mM acetate buffer pH4.5 and immobilised using standard amine coupling reaction. Antibodies dilutions were prepared by diluting the shortlisted candidates from 600 nM to 7.4 nM (5 concentrations with 1:3 dilutions) in running buffer and kinetics was assessed using multi-cycle kinetics method (120 sec association-300 sec dissociation). Kinetics and/or Affinity quantification was performed using Biacore Insight following standard analyses methods.

[2] = target: canine CD3 on canine T cells (canine PBMC) (canine, UniProt P27597 22-202); assay: cell-based or functional assay
Chain of canine CD3 on canine T cells (canine PBMC) (P27597 22-202 limits assumed, chain 1 of 3): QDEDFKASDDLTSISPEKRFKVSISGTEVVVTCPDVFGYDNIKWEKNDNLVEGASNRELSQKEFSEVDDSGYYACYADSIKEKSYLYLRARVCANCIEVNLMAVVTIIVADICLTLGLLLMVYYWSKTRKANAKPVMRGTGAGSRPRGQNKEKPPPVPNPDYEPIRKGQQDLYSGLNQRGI
Chain of canine CD3 on canine T cells (canine PBMC) (chain, as listed by the source limits assumed, chain 2 of 3): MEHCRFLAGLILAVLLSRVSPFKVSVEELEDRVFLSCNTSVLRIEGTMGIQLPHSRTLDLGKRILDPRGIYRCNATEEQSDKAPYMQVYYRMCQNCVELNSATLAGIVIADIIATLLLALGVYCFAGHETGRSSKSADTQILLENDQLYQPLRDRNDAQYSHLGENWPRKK
Chain of canine CD3 on canine T cells (canine PBMC) (chain, as listed by the source limits assumed, chain 3 of 3): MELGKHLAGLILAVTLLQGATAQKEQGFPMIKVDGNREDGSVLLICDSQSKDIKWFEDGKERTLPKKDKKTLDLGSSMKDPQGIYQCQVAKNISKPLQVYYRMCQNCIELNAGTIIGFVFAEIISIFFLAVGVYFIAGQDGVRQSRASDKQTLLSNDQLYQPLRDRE

T1 sequence (chain, as listed by the source mutant limits assumed): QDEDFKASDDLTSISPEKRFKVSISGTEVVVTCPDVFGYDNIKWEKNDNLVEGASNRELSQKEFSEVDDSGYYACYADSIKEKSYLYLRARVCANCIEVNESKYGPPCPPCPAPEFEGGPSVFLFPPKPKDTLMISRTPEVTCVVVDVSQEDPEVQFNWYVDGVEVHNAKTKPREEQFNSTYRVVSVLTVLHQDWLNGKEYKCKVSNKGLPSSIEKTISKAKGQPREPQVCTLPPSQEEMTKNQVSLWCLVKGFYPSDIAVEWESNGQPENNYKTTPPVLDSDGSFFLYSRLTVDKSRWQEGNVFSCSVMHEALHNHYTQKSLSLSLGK

Binder	Kd [1] [µM]	EC50 (M) of killing potency, bispecific killing of hCD20+GFP MDCK II cells by canine PBMC [2] [M]
B1	0.177	1.1e-08
B2	0.0621	9.44e-09
B3	0.0744	3.21e-08
B4	0.0998	2.55e-08
B5	0.0721	4.79e-09
B6	0.106	1.14e-08
B7	0.292	8.23e-09
